Data published in article PMC10629583 (2023).
Changes are numbered by the printed parent chain. In names and notes the source's numbering stands. Where no end group is shown, it is not given here. [ ]: non-standard residue; d: D form. The star is where a group is joined. FITC = O=C1OC2(c3ccc(O)cc3Oc3cc(O)ccc32)c2ccc(NC(=S)*)cc21; pT = C[C@@H](OP(=O)(O)O)[C@H](N)C(=O)O; Ahx = NCCCCCC(=O)O

How the values were obtained:
Test in all cases: FP
FITC-GPLATSpTPKNG = target: T1, FITC-GPLATSpTPKNG (synthetic construct)
T1 chain: {FITC}-GPLATS[pT]PKNG

FITC-GPMQTSpTPKNG = target: T2, FITC-GPMQTSpTPKNG (synthetic construct)
T2 chain: {FITC}-GPMQTS[pT]PKNG

[1] = target: PBD1 (residues 345–603) F559K (human, UniProt P53350 345-603, F559K)
Sequence of PBD1 (residues 345–603) F559K (P53350 345-603 F559K): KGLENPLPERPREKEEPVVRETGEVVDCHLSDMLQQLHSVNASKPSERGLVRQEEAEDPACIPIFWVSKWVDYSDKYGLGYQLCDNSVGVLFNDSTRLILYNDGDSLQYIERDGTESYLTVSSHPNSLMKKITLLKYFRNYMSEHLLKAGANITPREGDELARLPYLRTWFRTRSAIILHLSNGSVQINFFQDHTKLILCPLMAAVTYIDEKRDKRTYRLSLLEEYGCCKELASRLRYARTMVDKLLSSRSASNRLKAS

[2] = target: PBD1 (residues 345–603) F559R (human, UniProt P53350 345-603, F559R)
Sequence of PBD1 (residues 345–603) F559R (P53350 345-603 F559R): as the sequence (P53350 345-603 F559K) above, with K215R counted along it

[3] = target: PBD1 (residues 345–603) F559E (human, UniProt P53350 345-603, F559E)
Sequence of PBD1 (residues 345–603) F559E (P53350 345-603 F559E): as the sequence (P53350 345-603 F559K) above, with K215E counted along it

[4] = target: PBD1 (residues 345–603) F559D (human, UniProt P53350 345-603, F559D)
Sequence of PBD1 (residues 345–603) F559D (P53350 345-603 F559D): as the sequence (P53350 345-603 F559K) above, with K215D counted along it

[5] = target: Plk1 polo-box domain, PBD1 (residues 345–603) WT (human, UniProt P53350 345-603)
Sequence of Plk1 polo-box domain, PBD1 (residues 345–603) WT (P53350 345-603): as the sequence (P53350 345-603 F559K) above, with K215F counted along it

B1: MBP-PBD3 A612F (protein)
chain: TPPNPARSLFAKVTKSLFGRKKKSKNHAQERDEVSGLVSGLMRTSVGHQDARPEAPAASGPAPVSLVETAPEDSSPRGTLASSGDGFEEGLTVATVVESALCALRNCIAFMPPAEQNPAPLAQPEPLVWVSKWVDYSNKFGFGYQLSSRRVAVLFNDGTHMALSANRKTVHYNPTSTKHFSFSVGAVPRALQPQLGILRYFASYMEQHLMKGGDLPSVEEVEVPAPPLLLQWVKTDQALLMLFSDGTVQVNFYGDHTKLILSGWEPLLVTFVARNRSFCTYLASHLRQLGCSPDLRQRLRYALRLLRDRSPA
Kd (FITC-GPLATSpTPKNG): 85.4 nM

B2: MBP-PBD3 (protein)
chain: B1 chain with F278A
Kd (FITC-GPLATSpTPKNG): 62.4 nM

B3: PBD2 S652F (protein)
chain: HLSSPAKNFFKKAAAALFGGKKDKARYIDTHNRVSKEDEDIYKLRHDLKKTSITQQPSKHRTDEELQPPTTTVARSGTPAVENKQQIGDAIRMIVRGTLGSCSSSSECLEDSTMGSVADTVARVLRGCLENMPEADCIPKEQLSTSFQWVTKWVDYSNKYGFGYQLSDHTVGVLFNNGAHMSLLPDKKTVHYYAELGQCSVFPATDAPEQFISQVTVLKYFSHYMEENLMDGGDLPSVTDIRRPRLYLLQWLKSDKALMMLFNDGTFQVNFYHDHTKIIICSQNEEYLLTYINEDRIFTTFRLTTLLMSGCSSELKNRMEYALNMLLQRCN
Kd (FITC-GPMQTSpTPKNG): 62.7 nM

B4: PBD2 (protein)
chain: B3 chain with F298S
Kd (FITC-GPMQTSpTPKNG): 80.2 nM

B5: FITC-Ahx-DPPLHSpTAI-NH2 (peptide)
peptide: {FITC-Ahx}-DPPLHS[pT]AI-NH2
SMILES: CC[C@H](C)[C@H](NC(=O)[C@H](C)NC(=O)[C@@H](NC(=O)[C@H](CO)NC(=O)[C@H](Cc1c[nH]cn1)NC(=O)[C@H](CC(C)C)NC(=O)[C@@H]1CCCN1C(=O)[C@@H]1CCCN1C(=O)[C@H](CC(=O)O)NC(=O)CCCCCNC(=S)Nc1ccc2c(c1)C(=O)OC21c2ccc(O)cc2Oc2cc(O)ccc21)[C@@H](C)OP(=O)(O)O)C(N)=O
Kd [1]: 704 nM
Kd [2]: 460 nM
Kd [3]: 124 nM
Kd [4]: 28.1 nM
Kd [5]: 16.8 nM
